Assay results from the supplement of paper PMC9170038.

Tested on: MS2 coat protein
Experiment: apparent KD of MS2 coat protein; designed switch direction (-1 OFF switch, 1 ON switch): 1; higher = weaker reporter binding
Method in brief: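 The apparent KD reported per design is the median over clusters of curve fits to normalised cluster fluorescence. The RNA switches were transcribed on Illumina chips by stalled E. coli RNA polymerase. SNAP-549-labelled MS2 coat protein was titrated from 0.7 or 1.5 nM, doubling up to 3 µM, in Tris-HCl pH 7.5 buffer containing KCl, MgCl2, BSA, DTT, tRNA and Tween-20, with no input, 200 uM small-molecule ligand, or an oligonucleotide input.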

[1] = Eterna round: R95, input ligand: FMN 200 uM
[2] = Eterna round: R95, input ligand: microRNA oligo, concentration not stated
[3] = Eterna round: R95, input ligand: none
[4] = input ligand: microRNA oligo, concentration not stated

Sequence | apparent KD of MS2 coat protein [1] | apparent KD of MS2 coat protein [2] | apparent KD of MS2 coat protein [3] | apparent KD of MS2 coat protein (input ligand: FMN 200 uM) | apparent KD of MS2 coat protein [4] | apparent KD of MS2 coat protein (input ligand: none)
UCUUGGUUUUUGCUCGUUUUUUGUGUUGAACAUGAGGAUCACCCAUGUAUUGUACGGUCCAAUUUAAUAAUGGUCCA [JMF 37] (puzzle: Sensor for hsa-mir-208a) | 28.9 nM | 15.7 nM | 26.7 nM |  |  | 
AAACCCAGUCUGUAGGAUAUGCACCUGCCGACAUGAGGAUCACCCAUGUACCCUAACAACAGCGUGCAGAAGGGCAGCAAUAAAA [Verilara] (puzzle: Same State 2) | 19.2 nM | 22.9 nM | 26.3 nM |  |  | 
UGGUAACAUGAGGAUCACCCAUGUCAAGAGAAUCAAGGAUAUGGUAAGUAAUAAGAGAAUCUAGAAGGUGAAGUUG [Altered State 1-25 - Jieux - Same State 1] (puzzle: Same State 1) |  | 73.3 nM |  |  |  | 
GGUCCAGCCUGAGCUGGACAAAAGCAUGUACAUGAGGAUCACCCAUGUCAUGUACAAGCUUUUUGCUCGUCAUAAUU [Mat - hsa-mir-208a - 100] (puzzle: Sensor for hsa-mir-208a) | 495 nM | 16 nM | 489 nM |  |  | 
GCUAGAAAUAAAGCCAACAUGAGGAUCACCCAUGUAUGUUGGCAGGAUAUCGUAUGCAAAGCAUACGAGAAGGGCCAAACUAGC [Mat - Same State NG 3 - JL Mod - D3] (Eterna round: R96, puzzle: Same State NG 3) |  |  |  | 37.3 nM | 85 nM | 117 nM
GACGAGGUGGGAGGAUAUAGCCCGUGGACUGUACCCGAACAUGAGGAUCACCCAUGUCGAGAAACCUAGAAGGCCUACAACGUA [Eternabot solution 11] (Eterna round: R96, puzzle: Same State NG 2) |  |  |  | 16.8 nM | 10.8 nM | 38.4 nM
UUCACCUUAUUUUACAUGAGGAUCACCCAUGUUUUCCCUACGUAGGAUAUCGAUGCUUGAUUGUUCGAGAAGGACGAUGUAAGU [JR_SSND3_Sub055] (Eterna round: R96, puzzle: Same State NG 3) |  |  |  | 33.4 nM | 21.7 nM | 33.3 nM
UAAAUACAUGAGGAUCACCCAUGUCAAAAGACAUGAGGAUAUGUACAGACUUCGGUCUGUACAGAAGGCAUGAAAA [salish99_ss1_r3_095] (puzzle: Same State 1) | 43.6 nM | 708 nM | 890 nM |  |  | 
AACUAACAUGAGGAUCACCCAUGUUGCAGCGGUUGAGGAUAUGUGGGUGAAAAUAGCAUGGCAGAAGGCGAGUGUA [SameState1 Malc#25] (Eterna round: R96, puzzle: Same State 1) |  |  |  | 407 nM | 95.9 nM | 208 nM
GCUAGGAUAUGAAGAGGAUCACCCUUUAGAAGGAGCAUUAGCUAGGAUAUGAAGAGGAUCACCCUUUAGAAGGAGCACUACUCU [pwkr ssNG3 DX 2xF5 +2xFMN.7] (Eterna round: R96, puzzle: Same State NG 3) |  |  |  | 531 nM | 286 nM | 292 nM
GUUAAACAUGAGGAUCACCCAUGUAAUAAUAUGGGAGGAUAUCAGAAAUUAUUUAUUAAAUGAGAAGGCCUAAUUG [Mat - Same State 1 - Mod of Eli - D81] (puzzle: Same State 1) | 53.6 nM | 321 nM | 150 nM |  |  | 
GGAGCCGACACUGAGGAUAUUCAUAUUAAAACAUGAGGAUCACCCAUGUAGGCCAGAAGGCCUUGGGAGAAGGCAGGCCGGCUCG [Inxebi] (Eterna round: R96, puzzle: Same State 2) |  |  |  | 21.9 nM | 166 nM | 287 nM
ACAUGAGACGGAGGAUAUUUUGUACCUACAUGUGACAUGAGGAUCACCCAUGUGGUAAGUAUGAGAAAGAAGGCCGAGAUAUGU [Equivalence 19 - Jieux - Same State NG 2] (Eterna round: R96, puzzle: Same State NG 2) |  |  |  | 14.2 nM | 17.7 nM | 29.6 nM
AGUCCAGCCUGAGCUGGACAAAGGCAUGUACAUGAGGAUCACCCAUGUUCAUGUACAAGCUUUUUGCUCGUCUUAAA [Zipper 52 - 1] (puzzle: Sensor for hsa-mir-208a) | 140 nM | 11.4 nM | 181 nM |  |  | 
AUUUUGAAUGCAGGAUAUGAUUAACAUGAGGAUCACCCAUGUGGUGUUGUGAGUAAGGAGAGUGAUCAGAAGGGCAUUUUUUUU [JMF's solution 96] (Eterna round: R96, puzzle: Same State NG 2) |  |  |  | 599 nM | 452 nM | 445 nM
ACGCCCUCAGUAGGAUAUGGGAAAGGAAGUGUACCAGAAGGACUGGUUGAACAUGAGGAUCACCCAUGUUCAACGACAGGGCAA [PowerStrip SSNG 1.20] (Eterna round: R96, puzzle: Same State NG 1) |  |  |  | 18.6 nM | 13.9 nM | 18.6 nM

Sequence | apparent KD of MS2 coat protein [1] | apparent KD of MS2 coat protein [2] | apparent KD of MS2 coat protein [3] | apparent KD of MS2 coat protein (input ligand: FMN 200 uM) | apparent KD of MS2 coat protein [4] | apparent KD of MS2 coat protein (input ligand: none)
CCGGUUUAUGGAGGAUAUGGAGCCUUAUUGGCUCCAGAAGGCUAAUAACAUGAGGAUCACCCAUGUCGGCGGUCUAAUGACCGA [Eli NG1ss - 56] (Eterna round: R96, puzzle: Same State NG 1) |  |  |  |  | 21.8 nM | 
AAAGGAUGAUGUUACAUGAGGAUCACCCAUGUAGUGAUAACUAAGGAUAUGUGUUAAACCAGUUAAUAGAAGGUAGGAUCAUUA [AK SSNG3-V2-6] (Eterna round: R96, puzzle: Same State NG 3) |  |  |  | 43.8 nM | 35.1 nM | 49.4 nM
UAACAGUACAAUUUAGAUCUACAUGAGGAUCACCCAUGUACUGAGGAUAUCAGCUCGAAUAGAGCUGAGAAGGCAGAAGAACUA [SSNG3/11-A1] (Eterna round: R96, puzzle: Same State NG 3) |  |  |  | 35.8 nM | 127 nM | 203 nM
AUAAGUUCGAUGCUCGUCUCUCCGUACAAACAUGAGGAUCACCCAUGUGAUCGAGAAGUAGCCCGAUCAGUAUGGCC [Soainge] (puzzle: Sensor for hsa-mir-208a) | 30.2 nM | 27 nM | 35.3 nM |  |  | 
CCGGCAAGUAUAGGAUAUCCCGCUACAGAAGCGGGAGAAGGGUGCCAAACAUGAGGAUCACCCAUGUACACCGGAAAUAUAUAA [Soorve] (Eterna round: R96, puzzle: Same State NG 1) |  |  |  | 36.4 nM | 31.2 nM | 34.6 nM
UGUUGUAUUACAGGAUAUCUAUUAGGUUUAUUUAGAGAAGGGUAUUCACAUGAGGAUCACCCAUGUAUAUACGAGGAAGUUGUG [JMF's solution 87] (Eterna round: R96, puzzle: Same State NG 1) |  |  |  |  | 41.8 nM | 
UAAUUAAAGCAAGGAUAUCACGUCGAAUAGACGUGAGAAGGUGCUCCUUACAUGAGGAUCACCCAUGUAUAACAUGAAUAAUUA [SSNG1/10-B1] (Eterna round: R96, puzzle: Same State NG 1) |  |  |  | 166 nM | 702 nM | 741 nM
GAGCCAGUCCGAGGAUAUUCAUAUUAAACAUGAGGAUCACCCAUGUAGGCUCAGAAAGAGCCUUGGGAGAAGGCGGACUGGCUC [Xeonanisa<<1] (Eterna round: R96, puzzle: Same State NG 2) |  |  |  | 16.7 nM | 182 nM | 201 nM
ACAAGCUUUUUGCUCAUCUUAUGUCCGAAACAUGAGGAUCACCCAUGUAUAGAUUAUGUGUUGUUUUUGAUACAAGA [JR_SHM208A_Sub064] (puzzle: Sensor for hsa-mir-208a) | 32.1 nM | 24.9 nM | 33.1 nM |  |  | 
AUUUAACAAGCUUUUUGCUCGUCUUAUAAACAUGAGGAUCACCCAUGUAAUAGCGUGAGAGUAAUUUAAUAAAUAAU [JMF 84] (puzzle: Sensor for hsa-mir-208a) | 13.7 nM | 51.1 nM | 13.4 nM |  |  | 
AGUCCUGAAAGGAAAAUUAUAAGUGAUGUACAUGAGGAUCACCCAUGUCAUGUACAAGUUCUAUGCUCGUCUUAUAA [Sensorship 25 - Jieux - Sensor for hsa-mir-208a] (puzzle: Sensor for hsa-mir-208a) | 222 nM | 34.1 nM | 216 nM |  |  | 
CGUCCAGCCUGAGCUGGACAAAAGCAUGUACAUGAGGAUCACCCAUGUUCAUGUACAAGCUUUUUGCUCGUCUUAGA [salish99_208a_r3_072] (puzzle: Sensor for hsa-mir-208a) | 477 nM | 15.3 nM | 432 nM |  |  | 
ACAUGAGACUCAGGAUAUGGUGUACCUACAUGUGACAUGAGGAUCACCCAUGUGGUAAGUAUGACUCAGAAGGGAGAGAUAUGU [Equivalance 76 - Jieux - Same State NG 2] (Eterna round: R96, puzzle: Same State NG 2) |  |  |  | 37.4 nM | 116 nM | 171 nM
AUUCGUUUGAUAGGAUAUCACUUUACAUGAGGAUCACCCAUGUUCACCACGCUGGUCUCUUAUACUGAGAAGGAUCUUGAUGAC [JR_SSNG2_Sub009] (Eterna round: R96, puzzle: Same State NG 2) |  |  |  | 22.9 nM | 18.8 nM | 28 nM
CAAGUACAUGAGGAUCACCCAUGUGGAAGAGAUGCAGGAUAUGUGGAGGAAGGGAGUGUAACAGAAGGGCAAGGAG [JR_SS!_Sub020] (puzzle: Same State 1) | 39.9 nM | 45.6 nM | 50.8 nM |  |  | 
